Laboratory results reported in patent publication US20060105403A1 (published 2006).

How the values were obtained:
[1] = target: T1, murine ACC-α (acetyl-Coenzyme-A carboxylase, α form), endogenous protein of murine cell lysates (murine, UniProt Q5SWU9 1-2345); test: GST co-sedimentation in a lysate of murine fibroblasts
Source text: The inventors have shown that the tandem of the two BRCT domains was necessary and sufficient for the formation of this complex. Moreover, the inventors have shown that the formation of this complex was conserved in the human cells, using a GST-human BRCT fusion protein in co-sedimentation experiments similar to those cited above.
(§1) The proteins for fusion with GST were synthesised in Escherichia coli, strain JM 109 (Promega) transformed with pGEX-4T-1, pGEX-BRCT, pGEX-BRCT A, pGEX-BRCT B, pGEX-BRCT L, pGEX-BRCT M or pGEX-BRCTh as well as the mutated forms of BRCTh (A1708E, P1749R, M1775R, R1835X and Y1853X). They were purified by affinity chromatography on Glutathione-Sepharose. The test of binding by co-sedimentation was carried out in vitro by incubating cellular lysates in the presence of non-recombinant GST proteins or GST fusion proteins and Glutathione-Sepharose beads. 10 μg of GST or fusion GST were used in each binding test. The protein complexes were carefully washed (50 mM Tris HCl pH 7.6, 100 mM KCl, 0.05% Tween 20, 1 mM DTT, 0.2 mM PMSF) to eliminate the non-specific protein interactions and released by heating at 100° C. in loading buffer 5× SDS-PAGE and 100 mM DTT. The proteins were analysed by SDS-PAGE and visualised by autoradiography, staining with silver (Bio-Rad SilverStain) or staining with Coomassie blue according to the nature of the lysate used

[2] = target: T1, murine ACC-α (acetyl-Coenzyme-A …); test: GST co-sedimentation on NIH3T3 lysate
[3] = target: T1, murine ACC-α (acetyl-Coenzyme-A …); test: GST co-sedimentation, Western blot with streptavidin-peroxidase
Protocol: as §1
In order to map the domain of interaction of ACC-α on the BRCT tandem of Brca1, co-sedimentation tests with six distinct fusion proteins were carried out. The protein complexes of co-sedimentation were resolved by SDS-PAGE and visualised by Western Blot. The ACC protein containing the biotin was detected using peroxidase coupled with streptavidin, and as streptavidin has a high affinity for biotin it is therefore a very sensitive probe for detecting ACC-α (Witters, L. A. et al, 1994). […] However, the fragment GST-BRCT A which lacks the sequences of the domain B of BRCT is incapable of combining with ACC-α.

[4] = target: T1, murine ACC-α (acetyl-Coenzyme-A …); test: GST co-sedimentation with the mutated tandem
Protocol: as §1
Numerous familial mutations have been found in the carboxy-terminal segment of BRCA1. One of these, R1835X, localised in the distal domain of BRCT, introduces a non-sense codon which suppresses the last 29 amino acids of Brca1 and thus breaks the second BRCT domain. […]

B1: GST-BRCT (GST fusion protein containing amino acids 1583 to 1812 of murine Brca1) (other)
chain: TSSEERADRDISMVVSGLTPKEVMTVQKFAEKYRLTLTDAITEETTHVIIKTDAEFVCERTLKYFLGIAGGKWIVSYSWVVRSIQERRLLNVHEFEVKGDVVTGRNHQGPRRSRESREKLFKGLQVYCCEPFTNMPKDELERMLQLCGASVVKELPSLTHDTGAHLVVIVQPSAWTEDSNCPDIGQLCKARLVMWDWVLDSLSSYRCRGLDAYLVQNITCDSSEPQDSND
notes: Made in E. coli and held on glutathione-Sepharose beads; also called murine BRCT tandem; BRCT tandem of Brca1; not shown: glutathione S-transferase (GST) encoded by pGEX-4T-1 (Amersham Pharmacia Biotech)
binding result [1]: binds

B2: GST-BRCTh (GST fusion with the human form of the BRCT tandem of BRCA1) (other)
chain: TASTERVNKRMSMVVSGLTPEEFMLVYKFARKHHITLTNLITEETTHVVMKTDAEFVCERTLKYFLGIAGGKWVVSYFWVTQSIKERKMLNEHDFEVRGDVVNGRNHQGPKRARESQDRKIFRGLEICCYGPFTNMPTDQLEWMVQLCGASVVKELSSFTLGTGVHPIVVVQPDAWTEDNGFHAIGQMCEAPVVTREWVLDSVALYQCQELDTYLIPQIPHSHY
notes: also called GST-human BRCT fusion protein; human BRCT tandem; not shown: glutathione S-transferase (GST) encoded by the pGEX vector
binding result [2]: binds

B3: GST-BRCT L (GST fusion containing residues 1512-1812 of murine Brca1) (other)
chain: EGTPYLGSGISLFSSRDPESESPKEPAHIGTTPASTSALKIPQGQVAFRSAAAAGADKAVVGIVSKIKPELTSSEERADRDISMVVSGLTPKEVMTVQKFAEKYRLTLTDAITEETTHVIIKTDAEFVCERTLKYFLGIAGGKWIVSYSWVVRSIQERRLLNVHEFEVKGDVVTGRNHQGPRRSRESREKLFKGLQVYCCEPFTNMPKDELERMLQLCGASVVKELPSLTHDTGAHLVVIVQPSAWTEDSNCPDIGQLCKARLVMWDWVLDSLSSYRCRGLDAYLVQNITCDSSEPQDSND
notes: also called longer form of the murine BRCT domain; pGEX-BRCT L product; not shown: glutathione S-transferase (GST) encoded by pGEX-4T-1
binding result [3]: binds

B4: GST-BRCT A (GST fusion with the first BRCT module of murine Brca1 alone) (other)
chain: TSSEERADRDISMVVSGLTPKEVMTVQKFAEKYRLTLTDAITEETTHVIIKTDAEFVCERTLKYFLGIAGGKWIVSYSWVVRSIQERRLLNVHEFEVKGDVVTGRNHQGPRRSRESREKLFKG
notes: It uses the same forward primer as GST-BRCT, so it probably starts at residue 1583; also called BRCT A module alone; pGEX-BRCT A product; not shown: GST carrier and vector linker of pGEX-4T-1 at the N end
binding result [3]: no binding (tested: 10 µg of fusion GST per binding test)

B5: GST-BRCT B (GST fusion with the second BRCT module of murine Brca1 alone) (other)
chain: REKLFKGLQVYCCEPFTNMPKDELERMLQLCGASVVKELPSLTHDTGAHLVVIVQPSAWTEDSNCPDIGQLCKARLVMWDWVLDSLSSYRCRGLDAYLVQNITCDSSEPQDSND
notes: also called BRCT B module alone; pGEX-BRCT B product; not shown: GST carrier and vector linker of pGEX-4T-1 at the N end
binding result [3]: no binding (tested: 10 µg of fusion GST per binding test)

B6: GST-Brca1 N (GST fusion containing the 220 N-terminal residues of murine Brca1) (other)
chain: MDLSAVQIQEVQNVLHAMQKILECPICLELIKEPVSTKCDHIFCKFCMLKLLNQKKGPSQCPLCKNEITKRSLQGSTRFSQLAEELLRIMAAFELDTGMQLTNGFSFSKKRNNSCERLNEEASIIQSVGYRNRVRRLPQVEPGNATLKDSLGVQLSNLGIVRSVKKNRQTQPRKKSVYIELDSDSSEETVTKPGDCSVRDQELLQTAPQEAGDEGKLHSA
notes: also called GST fusion protein expressing the 220 amino-terminal residues of the murine Brca1 protein; not shown: glutathione S-transferase (GST); the vector for this construct is not described
binding result [3]: no binding (tested: 10 µg of fusion GST per binding test)

B7: GST-BRCT M (GST-BRCT of murine Brca1 with the non-sense mutation W1777X) (other)
chain: TSSEERADRDISMVVSGLTPKEVMTVQKFAEKYRLTLTDAITEETTHVIIKTDAEFVCERTLKYFLGIAGGKWIVSYSWVVRSIQERRLLNVHEFEVKGDVVTGRNHQGPRRSRESREKLFKGLQVYCCEPFTNMPKDELERMLQLCGASVVKELPSLTHDTGAHLVVIVQPSAWTEDSNCPDIGQLCKARLVM
notes: also called mutated tandem; pGEX-BRCT M product; not shown: GST carrier and vector linker of pGEX-4T-1 at the N end
binding result [4]: no binding (tested: 10 µg of fusion GST per binding test)
